Laboratory results reported in paper PMC3860265 (Journal of molecular biology, 2013).
Read-outs that look alike come from different tables or passages of the source.

Key:
Assay in all cases: kinase competition assay
[1] = molecular target: T1, SRPK1 (UniProt Q96SB4 1-655)
[2] = molecular target: T2, CLK1 (mouse, UniProt P22518 1-483)
[3] = molecular target: T1, SRPK1; remark: listed apart in the source
[4] = molecular target: T2, CLK1; remark: listed apart in the source
[5] = molecular target: T1, SRPK1; remark: listed apart in the source
[6] = molecular target: T1, SRPK1; remark: listed apart in the source
[7] = molecular target: T2, CLK1; remark: listed apart in the source

T1 sequence (Q96SB4 whole entry): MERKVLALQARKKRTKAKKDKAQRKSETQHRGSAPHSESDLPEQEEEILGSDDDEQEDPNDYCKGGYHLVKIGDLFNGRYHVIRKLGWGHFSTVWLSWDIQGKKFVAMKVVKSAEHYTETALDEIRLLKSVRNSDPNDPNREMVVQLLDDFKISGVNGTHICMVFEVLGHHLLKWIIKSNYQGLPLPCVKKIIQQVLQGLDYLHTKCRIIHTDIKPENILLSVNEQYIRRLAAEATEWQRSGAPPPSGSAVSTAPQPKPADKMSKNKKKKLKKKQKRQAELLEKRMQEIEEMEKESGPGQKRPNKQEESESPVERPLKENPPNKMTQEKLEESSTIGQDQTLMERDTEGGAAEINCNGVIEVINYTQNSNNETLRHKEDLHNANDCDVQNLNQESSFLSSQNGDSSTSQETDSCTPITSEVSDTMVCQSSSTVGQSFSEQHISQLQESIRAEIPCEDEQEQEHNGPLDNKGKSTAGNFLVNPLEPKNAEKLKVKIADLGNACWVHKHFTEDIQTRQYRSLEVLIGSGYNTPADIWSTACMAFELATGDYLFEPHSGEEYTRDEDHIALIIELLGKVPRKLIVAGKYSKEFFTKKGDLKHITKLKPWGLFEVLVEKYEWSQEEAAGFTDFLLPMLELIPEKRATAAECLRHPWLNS
T2 sequence (P22518 whole entry): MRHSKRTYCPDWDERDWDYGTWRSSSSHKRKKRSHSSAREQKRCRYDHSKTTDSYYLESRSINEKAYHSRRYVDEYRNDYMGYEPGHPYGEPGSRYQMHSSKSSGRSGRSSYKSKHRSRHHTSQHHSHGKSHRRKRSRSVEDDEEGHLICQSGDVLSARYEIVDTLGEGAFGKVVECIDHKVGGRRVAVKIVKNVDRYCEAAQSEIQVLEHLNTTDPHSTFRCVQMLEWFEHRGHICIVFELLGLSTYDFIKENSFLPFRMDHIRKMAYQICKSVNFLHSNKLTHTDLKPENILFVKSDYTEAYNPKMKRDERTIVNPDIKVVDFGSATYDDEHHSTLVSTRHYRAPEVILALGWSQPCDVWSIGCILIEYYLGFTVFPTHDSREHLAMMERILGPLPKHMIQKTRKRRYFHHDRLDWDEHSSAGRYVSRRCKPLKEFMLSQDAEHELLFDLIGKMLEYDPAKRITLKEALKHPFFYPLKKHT

| Binder | Ki [4] | appKI [4] | Ki [5] | appKI [5] | other results |
| --- | --- | --- | --- | --- | --- |
| SR(ΔRRM2) (domain or fragment) MSGGGVIRGPAGNNDCRIYVGNLPPDIRTKDIEDVFYKYGAIRDIDLKNRRGGPPFAFVEFEDPRDAEDAVYGRDGYDYDGYRLRVEFPRSGRGTGRGGGGGGGGGAPRGRYGPPSRRSEGPRSPSYGRSRSRSRSRSRSRSRSNSRSRSYSPRRSRGSPRYSPRHSRSRSRT |  |  |  |  | Ki [1]: 300 ± 100 nM; Ki [2]: 130 ± 30 nM |
| SR(RRM1-2) (domain or fragment) MSGGGVIRGPAGNNDCRIYVGNLPPDIRTKDIEDVFYKYGAIRDIDLKNRRGGPPFAFVEFEDPRDAEDAVYGRDGYDYDGYRLRVEFPRSGRGTGRGGGGGGGGGAPRGRYGPPSRRSENRVVVSGLPPSGSWQDLKDHMREAGDVCYADVYRDGTGVVEFVRKEDMTYAVRKLDNTKFRSHEGETAYIRVKVD |  |  |  |  | Ki [3]: 170 ± 30 nM |
| SR(RRM2) (domain or fragment) NRVVVSGLPPSGSWQDLKDHMREAGDVCYADVYRDGTGVVEFVRKEDMTYAVRKLDNTKFRSHEGETAYIRVKVD |  |  |  |  | Ki [3]: 2900 ± 500 nM |
| AYIRVKVDGPRSPSYGRSRSRSRSRSRSRSRSNSRSRSYSPRRSRGSP (domain or fragment, UniProt Q07955 188-235, looked up) [SR(188–235)] | 120 ± 10 nM | 180 ± 20 nM | 110 ± 7 nM | 170 ± 10 nM |  |
| AYIRVKVDGPRSPSYGRSRSRSRSRSRSRSRSNSRSRSYSP (domain or fragment, UniProt Q07955 188-228, looked up) [SR(188–228)] | 240 ± 30 nM | 370 ± 40 nM | 190 ± 30 nM | 280 ± 50 nM |  |
| AYIRVKVDGPRSPSYGRSRSRSRSRSRSRSRSN (domain or fragment, UniProt Q07955 188-220, looked up) [SR(188–220)] | 290 ± 20 nM | 440 ± 40 nM | 350 ± 200 nM | 520 ± 40 nM |  |
| SR(P200,228,235A) (natural protein, UniProt Q07955 1-248, looked up) MSGGGVIRGPAGNNDCRIYVGNLPPDIRTKDIEDVFYKYGAIRDIDLKNRRGGPPFAFVEFEDPRDAEDAVYGRDGYDYDGYRLRVEFPRSGRGTGRGGGGGGGGGAPRGRYGPPSRRSENRVVVSGLPPSGSWQDLKDHMREAGDVCYADVYRDGTGVVEFVRKEDMTYAVRKLDNTKFRSHEGETAYIRVKVDGPRSASYGRSRSRSRSRSRSRSRSNSRSRSYSARRSRGSARYSPRHSRSRSRT |  |  |  |  | Ki [6]: 33 ± 3 nM; appKI [6]: 80 ± 8 nM; Ki [7]: 130 ± 20 nM; appKI [7]: 440 ± 70 nM |
